Measurements taken from US20110217291A1.

Experiments:
[1] = molecular target: IgG of IgG Sepharose 6 Fast Flow resin (GE Healthcare); assay: batch binding of 293F conditioned media to IgG Sepharose, Western blot quantitation, n=2
[2] = molecular target: IgG of IgG Sepharose 6 Fast Flow resin (GE Healthcare); assay: IgG-Sepharose column, 24 h CHO conditioned media, Western blot

Row | percent of total expressed in IgG Sepharose flow-through (aggregate amount) [1] | percent of total expressed recovered from IgG resin [1] | percent of total applied bound to IgG-Sepharose [2] | percent of total applied in the wash (unbound) [2] | Binder
1 | 14.2% | 40% |  |  | FcγRIIA/RIA-CH6 (soluble hybrid receptor: first Ig domain of FcγRIIA followed by second and third Ig domains of FcγRIA, C-terminal six His tag) (receptor) AAPPKAVLKLEPPWINVLQEDSVTLTCQGARSPESDSIQWFHNGNLIPTHTQPSYRFKANNNDSGEYTCQTGQTSLSDPVHLTVLSEWLLLQVSSRVFTEGEPLALRCHAWKDKLVYNVLYYRNGKAFKFFHWNSNLTILKTNISHNGTYHCSGMGKHRYTSAGISVTVKELFPAPVLNASVTSPLLEGNLVTLSCETKLLLQRPGLQLYFSFYMGSKTLRGRNTSSEYQILTARREDSGLYWCEAATEDGNVLKRSPELELQVLGGSGGHHHHHH
2 | 36% | 82% | 53% | 47% | FcγRIIIA/RIA-CH6 (soluble hybrid receptor: first Ig domain of FcγRIIIA followed by second and third Ig domains of FcγRIA, C-terminal six His tag) (receptor) EDLPKAVVFLEPQWYRVLEKDSVTLKCQGAYSPEDNSTQWFHNESLISSQASSYFIDAATVDDSGEYRCQTNLSTLSDPVQLEVHIGWLLLQVSSRVFTEGEPLALRCHAWKDKLVYNVLYYRNGKAFKFFHWNSNLTILKTNISHNGTYHCSGMGKHRYTSAGISVTVKELFPAPVLNASVTSPLLEGNLVTLSCETKLLLQRPGLQLYFSFYMGSKTLRGRNTSSEYQILTARREDSGLYWCEAATEDGNVLKRSPELELQVLGGSGGHHHHHH
